Experimental data reported in PMC6533321 (EJNMMI Research, 2019).
Residues, ends and D or L forms follow the SMILES beside them.

Assays:
[1] = target: T1, hSST2 (Homo sapiens, UniProt P30874); assay: Competition binding against [^125I-Tyr^25]LTT-SS28 in HEK293-hSST2 cell membranes; details: mean ± sd, read-out: IC50 (displacement of [^125I-Tyr^25]LTT-SS28)
T1 construct: expressed in transfected cells; donated by Prof; S. Schultz, Jena
Protocol: (§1) The HEK293 cell line was transfected to stably express each of the hSST2/3/5 and the resultant HEK293-hSST2/3/5 cells used for receptor affinity assessments were donated by Prof. S. Schultz (Institute of Pharmacology and Toxicology, University Hospital, Friedrich Schiller University Jena, Germany). Cells were cultured at 37 °C and 5% CO2 in Dulbecco’s modified Eagle’s medium containing 10% fetal bovine serum, 100 U/mL penicillin, […] G418, as previously described. Culture reagents were from Gibco BRL, Life Technologies, and Biochrom KG Seromed.
(§2) [^125I-Tyr^25]LTT-SS28 served as radioligand and LTT-SS28 ([Leu^8,DTrp^22,Tyr^25]SS28) as reference compound [28, 30, 32]. Briefly, radioligand (70 μL, 50 pM corresponding to ≈ 40,000 cpm), test peptide (30 μL solution of increasing concentrations, 10^− 5–10^− 13 M), and membrane homogenates (200 μL) were added to each assay tube (total volume of 300 μL in binding solution: 50 mM HEPES pH 7.4, 1% BSA, 5.5 mM MgCl2, 35 μM bacitracin) in triplicates for each concentration point. Samples were incubated for 60 min at 22 °C in an Incubator-Orbital Shaker unit (MPM Instr. SrI). […]

[2] = target: hSST5 (Homo sapiens, UniProt P35346); assay: Competition binding against [^125I-Tyr^25]LTT-SS28 in HEK293-hSST5 cell membranes; details: mean ± sd, read-out: IC50 (displacement of [^125I-Tyr^25]LTT-SS28)
Protocol: as §1, §2

[3] = target: T2, hSST3 (Homo sapiens, UniProt P32745); assay: Competition binding against [^125I-Tyr^25]LTT-SS28 in HEK293-hSST3 cell membranes; details: mean ± sd, read-out: IC50 (displacement of [^125I-Tyr^25]LTT-SS28)
T2 construct: expressed in transfected cells; donated by Prof; S. Schultz, Jena
Protocol: as §1
[^125I-Tyr^25]LTT-SS28 served as radioligand and LTT-SS28 ([Leu^8,DTrp^22,Tyr^25]SS28) as reference compound [28, 30, 32]. Briefly, radioligand (70 μL, 50 pM corresponding to ≈ 40,000 cpm), test peptide (30 μL solution of increasing concentrations, 10^− 5–10^− 13 M), and membrane homogenates (200 μL) were added to each assay tube (total volume of 300 μL in binding solution: 50 mM HEPES pH 7.4, 1% BSA, 5.5 mM MgCl2, 35 μM bacitracin) in triplicates for each concentration point. Samples were incubated for 60 min at 22 °C in an Incubator-Orbital Shaker unit (MPM Instr. SrI). […] Filters were collected, and their activity measured in a γ-counter (automated well-type multisample gamma counter; NaI(Tl) 3″ crystal, Canberra Packard Auto-Gamma 5000 series instrument).

[4] = test system: patient with a well-differentiated NET; assay: PET/CT in a patient with well-differentiated NET; details: human, in vivo
Protocol: Despite octreotide therapy, the disease was progressing, and in 2015, the patient was treated with peptide receptor radionuclide therapy (PRRT), administering 5 GBq of [^90Y]Y-DOTA-TOC. […] Written informed consent was obtained from the patient in accordance with paragraph 37 of the updated Declaration of Helsinki, ‘Unproven Interventions in Clinical Practice’, and in accordance with the German Medical Products Act AMG §13 2b.

[5] = Ex vivo biodistribution 60 min p.i.; details: female, NMRI-nude, mouse, in vivo, iv, total radioactivity
Protocol: (§3) A number of 2 × 10^6 MPC-mCherry cells were transplanted subcutaneously into the right shoulder of female NMRI-nude mice (8 to 10 weeks old, RjOrl:NMRI-Foxn1^nu /Foxn1^nu, Janvier Labs). […] Animals were sacrificed at 60 min post-injection (p.i.). […] The activity of the tissue samples was decay-corrected and calibrated by comparing the counts in tissue with the counts in aliquots of the injected radiotracer that had been measured in the γ-counter at the same time. The activity in the selected organs was expressed as percent-injected activity per organ (%IA) and the activity concentration in tissues and organs as standardised uptake value (SUV in [MBq activity/g tissue]/[MBq injected activity/g body weight]). Values are quoted as mean ± standard deviation for each group of animals.

[6] = test system: MPC-mCherry tumour-bearing NMRI-nude mice; assay: Ex vivo biodistribution 60 min p.i.; details: female, mouse, in vivo, iv, 1 h
Protocol: as §3

[7] = test system: normal liver; details: in vivo; cited from earlier work

T2 sequence (P32745 whole entry): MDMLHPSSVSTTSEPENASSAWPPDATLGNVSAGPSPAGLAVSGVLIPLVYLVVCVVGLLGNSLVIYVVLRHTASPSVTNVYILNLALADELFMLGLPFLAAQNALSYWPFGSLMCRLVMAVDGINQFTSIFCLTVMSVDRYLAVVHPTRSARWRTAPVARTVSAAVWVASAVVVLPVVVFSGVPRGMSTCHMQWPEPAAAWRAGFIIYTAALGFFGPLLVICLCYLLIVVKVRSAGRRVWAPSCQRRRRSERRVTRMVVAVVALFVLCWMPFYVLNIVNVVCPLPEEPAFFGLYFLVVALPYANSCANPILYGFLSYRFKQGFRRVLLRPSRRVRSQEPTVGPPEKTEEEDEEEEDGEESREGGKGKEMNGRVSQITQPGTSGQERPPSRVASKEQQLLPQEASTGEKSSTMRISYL
T1 sequence (P30874 whole entry): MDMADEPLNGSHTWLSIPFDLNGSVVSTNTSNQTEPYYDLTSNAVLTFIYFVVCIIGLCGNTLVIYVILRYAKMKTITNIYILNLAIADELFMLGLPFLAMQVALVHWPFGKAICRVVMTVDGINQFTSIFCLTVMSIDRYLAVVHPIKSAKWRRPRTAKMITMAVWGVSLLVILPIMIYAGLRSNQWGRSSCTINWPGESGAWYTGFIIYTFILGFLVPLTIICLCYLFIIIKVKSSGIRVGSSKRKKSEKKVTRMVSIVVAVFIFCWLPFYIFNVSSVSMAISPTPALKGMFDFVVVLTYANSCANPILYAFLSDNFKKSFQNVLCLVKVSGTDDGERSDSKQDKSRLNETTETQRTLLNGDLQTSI
Chain of hSST5 (P35346 whole entry): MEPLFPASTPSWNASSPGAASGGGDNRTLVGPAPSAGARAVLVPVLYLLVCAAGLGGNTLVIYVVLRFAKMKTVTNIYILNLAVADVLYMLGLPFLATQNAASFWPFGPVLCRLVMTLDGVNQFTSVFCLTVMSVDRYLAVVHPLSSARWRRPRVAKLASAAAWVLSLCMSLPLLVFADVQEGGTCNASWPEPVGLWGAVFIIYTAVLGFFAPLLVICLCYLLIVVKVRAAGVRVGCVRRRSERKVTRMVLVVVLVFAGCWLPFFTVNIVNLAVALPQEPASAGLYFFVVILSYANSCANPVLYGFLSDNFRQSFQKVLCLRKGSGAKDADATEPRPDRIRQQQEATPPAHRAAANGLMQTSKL

Molecule `CC(C)C[C@H](NC(=O)[C@H](C)NC(=O)[C@@H]1CCCN1C(=O)[C@H](CC(N)=O)NC(=O)[C@H](CO)NC(=O)[C@H](CC(N)=O)NC(=O)[C@H](C)NC(=O)[C@@H](N)CO)C(=O)N[C@@H](C)C(=O)N1CCC[C@H]1C(=O)N[C@@H](CCCN=C(N)N)C(=O)N[C@@H](CCC(=O)O)C(=O)N[C@@H](CCCN=C(N)N)C(=O)N[C@@H](CCCCN)C(=O)N[C@@H](C)C(=O)NCC(=O)N[C@H]1CSSC[C@@H](C(=O)O)NC(=O)[C@H](CO)NC(=O)[C@H]([C@@H](C)O)NC(=O)[C@H](Cc2ccc(O)cc2)NC(=O)[C@H]([C@@H](C)O)NC(=O)[C@H](CCCCN)NC(=O)[C@@H](Cc2c[nH]c3ccccc23)NC(=O)[C@H](Cc2ccccc2)NC(=O)[C@H](Cc2ccccc2)NC(=O)[C@H](CC(N)=O)NC(=O)[C@H](CCCCN)NC1=O` [LTT-SS28] (HELM PEPTIDE1{S.A.N.S.N.P.A.L.A.P.R.E.R.K.A.G.C.K.N.F.F.[dW].K.T.Y.T.S.C}$PEPTIDE1,PEPTIDE1,17:R3-28:R3$$$V2.0) has an IC50 [1] of 0.05 ± 0.01 nM, an IC50 [2] of 0.17 ± 0.03 nM and an IC50 [3] of 0.09 ± 0.01 nM.

In the case of `C[C@@H](O)[C@@H]1NC(=O)[C@H](CCCCN)NC(=O)[C@@H](Cc2c[nH]c3ccccc23)NC(=O)[C@H](Cc2ccc(O)cc2)NC(=O)[C@@H](NC(=O)[C@@H](Cc2ccccc2)NC(=O)CN2CCN(CC(=O)O)CCN(CC(=O)O)CCN(CC(=O)O)CC2)CSSC[C@@H](C(=O)N[C@H](CO)[C@@H](C)O)NC1=O` [[^68Ga]Ga-DOTA-TOC, metal not drawn], the “SUV, blood” value [4] is reported as 2.0 SUV, the “SUV, liver” value [4] is reported as 23.1 SUV and the “SUV, pituitary” value [4] is reported as 23.7 SUV. For the same molecule, the “SUV, target lesion” value [4] was 71.1 SUV, the SUV at 1 h ([5]; Blood radioactivity concentration) was 0.06 ± 0.01 SUV and the tissue uptake dose at 1 h ([5]; Brain uptake) was 0.02 ± 0.01 %ID. The tissue uptake dose at 1 h ([5]; Femur uptake) was 0.04 ± 0.04 %ID, the tissue uptake dose at 1 h ([5]; Kidneys uptake) was 3.34 ± 0.87 %ID and the tissue uptake dose at 1 h ([5]; Liver uptake) was 0.45 ± 0.09 %ID. The tissue uptake dose at 1 h ([5]; Lung uptake) was 0.12 ± 0.01 %ID, the tissue uptake dose at 1 h ([5]; Ovaries uptake) was 0.02 ± 0.01 %ID and the tissue uptake dose at 1 h ([5]; Pancreas uptake) was 0.42 ± 0.06 %ID. The tissue uptake dose at 1 h ([5]; Stomach uptake) was 1.34 ± 0.39 %ID, the tissue uptake dose at 1 h ([5]; Thyroid uptake) was 0.01 %ID and the dose excreted at 1 h ([5]; Urine calc.) was 83.3 ± 3.73%. The Intestine uptake [6] was 2.11±1.33 %IA, the Tumour radioactivity concentration [6] was 4.52 ± 1.96 SUV and the Tumour uptake [6] was 2.40±1.94 %IA. The “SUVmax of the liver, previous value reported” value [7] was 12.8 ± 3.6.
